In general, Km refers to the concentration of substrate that gives half-maximal velocity.

This is an account of results in patent US6399758B1, “Nucleic acids for reducing carbohydrate epitopes” (The Austin Research Institute, priority 1996, dated 2002).

The conditions of series [1]: Type I Galβ(1,3)GlcNAc; literature refs 34, 35; read-out: Km reported; cited from earlier work.
The conditions of series [2]: Type II Galβ(1,4)GlcNAc; literature refs 34, 37; read-out: Km reported; cited from earlier work.
The conditions of series [3]: Type III Galβ(1,3)GalNAc; literature ref 34; read-out: Km reported; cited from earlier work.
Series [4] relates to α(1,2)-fucosyltransferase. In words: α(1,2)-fucosyltransferase activity in lysates of transfected COS cells. The series is classed as biochemical, pig. Conditions: mock-transfected baseline 1.1. Here is the method: (§1) Cells were washed twice with phosphate buffered saline and lysed in either 1% Triton X100/100 mM Tris pH7.0 or 1% Triton X100/100 mM sodium cacodylate pH 6.5/25 mM MnCl2 at 4° C. for 30 min, lysates centrifuged and the supernatant collected and stored at −70° C. Protein concentration was determined by the Bradford test, using bovine serum albumin as a standard; 5-20 μg of cell extract was used per transferase assay. The assay for α-1,2 fucosyltransferase involved mixing cell extracts and acceptor (75 mM pheny-β-Dgalactoside (Sigma)) in 50 μl 50 mM MOPS (3-[N-Morpholino]propanesulphonic acid) pH 6.5; 20 mM MnCl2; 5 mM ATP; 3 μM GDP[^14C]-Fuc (specific activity 287 mCi/mmol, Amersham International plc, Amersham, UK) and incubation for 2 h at 37° C. The reaction was terminated by the addition of ethanol, and the incorporated ^14C-Fuc determined by liquid scintillation counting after separation in Sep-Pak C18 cartridges (Waters-Millipore, Millford, Mass.). In all cases the parallel reactions were performed in the absence of added acceptor molecules, to allow for the calculation of specific incorporation.
Cell lysates prepared from COS cells transfected with pFUT2 and pFUT1 were assayed for α(1,2)-fucosyltransferase activity. […] The enzyme activity measured in these lysates reflects the expression of H substance on the cell surface as shown in Example 2.

The nature of series [5]: Enzyme kinetics, apparent Km, Type I substrate. The note with it: Type I Galβ(1,3)GlcNAc; lysates of transfected COS cells. Format: biochemical. The procedure:
as §1
(§2) Cell lysates prepared from COS cells transfected in the manner described in Example 1 with pFUT2 (pig Se), pFUT1 (pig H transferase), or with vector alone were assayed for α(1,2)-fucosyltransferase activity, and the kinetic values were calculated. […]

A short description of series [6]: Enzyme kinetics, apparent Km, Type II substrate. Format: biochemical. The note with it: Type II Galβ(1,4)GlcNAc; lysates of transfected COS cells. Here is the method:
as §1, §2

Series [7] can be described thus: Enzyme kinetics, apparent Km, Type III substrate. The series is classed as biochemical. The note with it: Type III Galβ(1,3)GalNAc; lysates of transfected COS cells. The procedure: as §1, §2
Series [8] can be described thus: Enzyme kinetics, apparent Km, Type IV substrate. Format: biochemical. The note with it: Type IV Galβ(1,4)Gal; lysates of transfected COS cells. The procedure:
as §1, §2

Series [9] can be described thus: Enzyme kinetics, apparent Km, lactose. Format: biochemical. Conditions: Lactose Galβ(1,4)Glc; lysates of transfected COS cells. The procedure:
as §1, §2

Like-named read-outs stand apart in the source and are kept apart here.

B1: human FUT2: human α(1,2)-fucosyltransferase FUT2 (secretor), literature homologue (protein, UniProt Q10981 1-343, looked up)
Galactoside …: MLVVQMPFSFPMAHFILFVFTVSTIFHVQQRLAKIQAMWELPVQIPVLASTSKALGPSQLRGMWTINAIGRLGNQMGEYATLYALAKMNGRPAFIPAQMHSTLAPIFRITLPVLHSATASRIPWQNYHLNDWMEEEYRHIPGEYVRFTGYPCSWTFYHHLRQEILQEFTLHDHVREEAQKFLRGLQVNGSRPGTFVGVHVRRGDYVHVMPKVWKGVVADRRYLQQALDWFRARYSSLIFVVTSNGMAWCRENIDTSHGDVVFAGDGIEGSPAKDFALLTQCNHTIMTIGTFGIWAAYLTGGDTIYLANYTLPDSPFLKIFKPEAAFLPEWTGIAADLSPLLKH
In the case of B1, the Km in series [1] was 1 mM; in series [2] it was 5.7 mM.

B2: rabbit FUT2: rabbit α(1,2)-fucosyltransferase FUT2, literature homologue (protein, UniProt Q10983 1-354, looked up)
Galactoside …: MRFAPDYVLCPPTATRRLRATHPSVSTIYFLFTIFVVSTVFHCHQRLALVPAPWAYSARVVVVPGHLPREGMWTINAMGRLGNQMGEYATLYALAKENGRPAYIPAQMHSTLAPIFRISLPVLHSSTASRVPWQNYHLNDWMEERYRHIPVPYVRLTGYPCSWTFYHHLRHEILREFTLHDHVREEAQAFLRGLRVNGSRPSTFVGVHVRRGDYVRVMPQVWKGVVADRGYLEQALDWFRAPTAPPVFVVTSNGMAWCRENIDASRGDVVFAGNGLEGSPAKDFALLTQCNHTVMTIGTFGFWAAYLTGGDTVYLANYTAPDSPFHLVFKPEAAFLPEWVGITANMGRALWSGL
On to B2, for which the Michaelis constant (Km) in series [1] is 1.5 mM; in series [2], 6.7 mM; in series [3], 1 mM.

B3: pFUT2: pig Secretor type α(1,2)-fucosyltransferase expressed in COS cells; label also used for the plasmid encoding it (protein, UniProt Q10982 1-340, looked up)
Galactoside …: MLSMQASFFFPTGPFILFVFTASTIFHLQQRMVKIQPTWELQMVTQVTTESPSSPQLKGMWTINAIGRLGNQMGEYATLYALARMNGRPAFIPPEMHSTLAPIFRITLPVLHASTARRIPWQNYHLNDWMEERYRHIPGEYVRLTGYPCSWTFYHHLRTEILREFTLHNHVREEAQDFLRGLRVNGSRPSTYVGVHVRRGDYVHVMPNVWKGVVADRRYLEQALDWFRARYRSPVFVVSSNGMAWCRENINASRGDVVFAGNGIEGSPAKDFALLTQCNHTVMTIGTFGIWAAYLAGGETIYLANYTLPDSPFLKLFKPEAAFLPEWIGIEADLSPLLKH
As to B3, in series [4], the “α(1,2)-fucosyltransferase activity” value worked out at 151.1 nmol/h/mg. Further, the Km in series [5] amounted to 1.3 mM; in series [6], 4.4 mM; in [7], 0.2 mM; in series [8], 1.5 mM; in series [9] it was 7.4 mM.

B4: rabbit FUT1: rabbit α(1,2)-fucosyltransferase FUT1, literature homologue (protein, UniProt Q10979 1-373, looked up)
Galactoside …: MWPPSRRQLCLAFLLVCALSAFSFLLHLHQDLFRNGLALSLPCLERQPVPAPVAIVCLPVTSPASNASSCAGRPAAPSGIWTIHPDGRFGNQMGQYATLLALAQLNGRRAFILPAMHAALAPVFRITLPVLAPEVNRRTSWKQLLLHDWMSEEYSRLEDPFLKFTGFPCSWTFFHHVREQIRREFTLHDHLREEAQRLLGKLRLGRTGARPRTFVGVHVRRGDYLQVMPQRWKGVVGDRAYLQQAMDWFRARHEAPIFVVTSNGMKWCWENIDASRGDVVFAGNGLESSPAKDFALLTQCNHTVMTIGTFGFWAAYLAGGDTVYLANFTLPDSEFLKIFKPEAAFLPEWVGINADLSPVRTLSGSWRPWRFLG
As to B4, the Km in series [1] was 3.1 mM; in series [2] it was 4.2 mM; in series [3], 5.8 mM.

B5: human FUT1: human α(1,2)-fucosyltransferase FUT1 (H transferase), literature homologue (protein, UniProt P19526 1-365, looked up)
Galactoside …: MWLRSHRQLCLAFLLVCVLSVIFFLHIHQDSFPHGLGLSILCPDRRLVTPPVAIFCLPGTAMGPNASSSCPQHPASLSGTWTVYPNGRFGNQMGQYATLLALAQLNGRRAFILPAMHAALAPVFRITLPVLAPEVDSRTPWRELQLHDWMSEEYADLRDPFLKLSGFPCSWTFFHHLREQIRREFTLHDHLREEAQSVLGQLRLGRTGDRPRTFVGVHVRRGDYLQVMPQRWKGVVGDSAYLRQAMDWFRARHEAPVFVVTSNGMEWCKENIDTSQGDVTFAGDGQEATPWKDFALLTQCNHTIMTIGTFGFWAAYLAGGDTVYLANFTLPDSEFLKIFKPEAAFLPEWVGINADLSPLWTLAKP
For B5, the figures for the Km in series [1] and in series [2] were 2 mM and 1.9 mM, respectively.

B6: pFUT1: pig H type α(1,2)-fucosyltransferase expressed in COS cells; label also used for the plasmid encoding it (protein, UniProt Q29043 1-365, looked up)
Galactoside …: MWVPSRRHLCLTFLLVCVLAAIFFLNVYQDLFYSGLDLLALCPDHNVVSSPVAIFCLAGTPVHPNASDSCPKHPASLSGTWTIYPDGRFGNQMGQYATLLALAQLNGRQAFIQPAMHAVLAPVFRITLPVLAPEVDRHAPWRELELHDWMSEDYAHLKEPWLKLTGFPCSWTFFHHLREQIRSEFTLHDHLRQEAQGVLSQFRLPRTGDRPSTFVGVHVRRGDYLRVMPKRWKGVVGDGAYLQQAMDWFRARYEAPVFVVTSNGMEWCRKNIDTSRGDVIFAGDGREAAPARDFALLVQCNHTIMTIGTFGFWAAYLAGGDTIYLANFTLPTSSFLKIFKPEAAFLPEWVGINADLSPLQMLAGP
As to B6, in series [4], the “α(1,2)-fucosyltransferase activity” value came out at 140.0 nmol/h/mg. In addition, the Michaelis constant (Km) in [5] was 6 mM; in series [6], 3.7 mM; in series [7], 14 mM; in [8], 4.2 mM; in series [9], 1.9 mM.
